This note sets out measurements from article PMC7282976.

The nature of series [1]: conditioned-media western and immunocytochemistry. The note with it: glycan lost; control: same mutant without Tun.
Series [2] can be described thus: anti-Hag immunocytochemistry, extracellular V3 staining. The note with it: glycan lost; control: native V3, Dox, no Tun.
The nature of series [3]: anti-Hag western densitometry of cell lysates. The following applies: glycan lost; control: native V3, Dox, no Tun.

“versican isoform V3 (rat V3): N57Q + tunicamycin”: the expression_or_secretion entry in series [1] was “abolishes”.
As to “versican isoform V3 (rat V3): tunicamycin”, the localisation_or_trafficking result in series [2] was “no change”. In series [3], the “expression_or_secretion, fold_change” value is reported as “decreases”.
In the case of “versican isoform V3 (rat V3): N330Q + tunicamycin”, the expression_or_secretion entry in series [1] is “abolishes”.
